Source: patent US20160289305A1 (INTERNATIONAL AIDS VACCINE INITIATIVE, published 2016)

Target: T1, YU2 gp120 (HIV-1, UniProt P35961 32-498)
T1 construct: domain: gp120
Assay: ELISA

B1: VRC-PG-05 (antibody, V domains shown)
VH: EVQLVESGGGLVQPGGSLRLSCAASGFPFNRDWMTWVRQAPGKGLEWVANINMDGDKKDYVDSVKGRFTISRDNAKTSLYLQMNSLRAGDTAVYYCARIRQVSKYLQWYPGVFEMWGQGTMVTVSS
VL: DIVMTQSPDSLAVSLGERATIHCKSSQSVLYRPNNRNYVAWYQQKPGQPPRLLIHWASFRESGVPDRFTGSGSGTDFTLTISSLQAEDVAVYYCQQYFFLYSFGGGTKLEIN
binding result: binds
